Assay [1] has as its target T1, recombinant human CD8ab (human, UniProt P01732 22-182; P10966 22-170).
T1 construct: Soluble form of the CD8 alpha/beta heterodimer; construct not described
As to the kind of experiment: SPR (Biacore), soluble antigen, mean ± SD of three experiments. The protocol: (§1) KD were calculated as the ratio of koff/kₒₙ from a non-linear fit of the data. Values are presented as mean±standard deviation (SD) of three experiments.
In general terms: In SPR one partner is held on a chip, and binding of the other changes the refractive index at the surface.

Assay [2] has as its target T2, recombinant cynomolgus monkey CD8ab (cynomolgus monkey).
T2 construct: Soluble form of the CD8 alpha/beta heterodimer; construct not described
The assay is described as above. The protocol: as §1

Assay [3] has as its target T3, soluble recombinant human GPC3 protein (human, UniProt P51654 25-559, biotinylated in the biolayer interferometry assay).
T3 construct: also called GPC3 human
The description is as above. The protocol:
as §1

Assay [4] deals with recombinant cynomolgus monkey GPC3 (cynomolgus monkey, UniProt A0A2K5VK50 24-558). Described as above. The protocol: as §1
Assay [5] concerns the target T4, GPC3 on human hepatoma cells (Hep3B, HepG2) (human, UniProt P51654 25-554).
T4 construct: whole, on cells; also called Glypican-3
In words: flow cytometry on Hep3B cells, goat anti-human-IgG-APC; Hep3B cells. The protocol: (§2) Cell bindings were measured by flow cytometry.
as §2
For orientation: Flow cytometry measures light scatter and fluorescence of single cells or particles in a stream.

Assay [6] has as its target T4, GPC3 on human hepatoma cells (Hep3B, …). As to the kind of experiment: flow cytometry on HepG2 cells, goat anti-human-IgG-APC; HepG2 cells. The protocol:
as §2, §2

Assay [7] addresses T5, LRRC15 on LRRC15pos tumour cell lines (Saos-2 WT, RPMI-7951 WT) (UniProt Q8TF66 22-581, limits assumed).
T5 construct: whole, on cells; also called leucine rich repeat containing 15
T5 sequence (looked up): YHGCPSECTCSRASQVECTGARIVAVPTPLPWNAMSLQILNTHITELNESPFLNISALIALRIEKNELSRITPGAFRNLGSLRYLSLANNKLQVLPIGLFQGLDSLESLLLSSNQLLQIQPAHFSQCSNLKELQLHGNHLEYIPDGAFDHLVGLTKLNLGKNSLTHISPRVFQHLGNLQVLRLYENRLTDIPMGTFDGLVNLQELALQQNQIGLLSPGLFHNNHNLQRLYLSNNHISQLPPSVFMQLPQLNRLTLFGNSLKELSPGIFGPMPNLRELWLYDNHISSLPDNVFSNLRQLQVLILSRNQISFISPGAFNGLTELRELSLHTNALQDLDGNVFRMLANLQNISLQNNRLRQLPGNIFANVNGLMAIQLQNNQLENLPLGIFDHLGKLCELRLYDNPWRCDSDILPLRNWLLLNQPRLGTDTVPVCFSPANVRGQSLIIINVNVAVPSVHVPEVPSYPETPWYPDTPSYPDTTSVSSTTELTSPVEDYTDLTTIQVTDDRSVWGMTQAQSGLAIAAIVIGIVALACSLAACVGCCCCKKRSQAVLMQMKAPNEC
In words: Flow cytometry on Saos-2 WT cells (LRRC15pos), detected with anti-human Fc Alexa Fluor 647 (MFI).

In assay [8] the target is T5, LRRC15 on LRRC15pos tumour cell lines …. As to the kind of experiment: Flow cytometry on RPMI-7951 WT cells (LRRC15pos), detected with anti-human Fc Alexa Fluor 647 (MFI).

Here are results for 2 molecules from patent publication US20250115678A1 (AstraZeneca / MedImmune, published 2025).

T3 sequence (P51654 25-559 limits assumed): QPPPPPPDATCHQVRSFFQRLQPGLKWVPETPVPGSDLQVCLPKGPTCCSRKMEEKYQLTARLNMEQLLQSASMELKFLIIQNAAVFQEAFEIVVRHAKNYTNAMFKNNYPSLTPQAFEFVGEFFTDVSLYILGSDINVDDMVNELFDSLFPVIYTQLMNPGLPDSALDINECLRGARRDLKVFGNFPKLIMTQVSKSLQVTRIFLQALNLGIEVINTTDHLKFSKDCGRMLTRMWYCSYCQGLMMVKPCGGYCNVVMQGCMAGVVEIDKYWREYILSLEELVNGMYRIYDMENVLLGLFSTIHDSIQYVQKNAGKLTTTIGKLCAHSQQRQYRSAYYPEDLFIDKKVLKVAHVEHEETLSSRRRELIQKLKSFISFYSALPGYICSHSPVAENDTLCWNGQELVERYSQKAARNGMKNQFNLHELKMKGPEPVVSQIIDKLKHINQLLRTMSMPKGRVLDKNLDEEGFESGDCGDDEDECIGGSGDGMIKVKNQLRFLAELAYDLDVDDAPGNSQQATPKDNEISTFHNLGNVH
T1 sequence (P01732 22-182, chain 1 of 2): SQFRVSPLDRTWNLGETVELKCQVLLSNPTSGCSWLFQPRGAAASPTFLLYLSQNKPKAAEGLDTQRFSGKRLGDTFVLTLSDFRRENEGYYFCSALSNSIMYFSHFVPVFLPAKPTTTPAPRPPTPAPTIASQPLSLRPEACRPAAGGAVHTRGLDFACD
T1 sequence (P10966 22-170, chain 2 of 2): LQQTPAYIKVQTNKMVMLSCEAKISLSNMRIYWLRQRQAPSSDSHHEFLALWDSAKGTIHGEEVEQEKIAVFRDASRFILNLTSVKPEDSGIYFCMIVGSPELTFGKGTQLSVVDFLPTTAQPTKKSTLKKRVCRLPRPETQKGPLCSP
T4 sequence (P51654 25-554 limits assumed): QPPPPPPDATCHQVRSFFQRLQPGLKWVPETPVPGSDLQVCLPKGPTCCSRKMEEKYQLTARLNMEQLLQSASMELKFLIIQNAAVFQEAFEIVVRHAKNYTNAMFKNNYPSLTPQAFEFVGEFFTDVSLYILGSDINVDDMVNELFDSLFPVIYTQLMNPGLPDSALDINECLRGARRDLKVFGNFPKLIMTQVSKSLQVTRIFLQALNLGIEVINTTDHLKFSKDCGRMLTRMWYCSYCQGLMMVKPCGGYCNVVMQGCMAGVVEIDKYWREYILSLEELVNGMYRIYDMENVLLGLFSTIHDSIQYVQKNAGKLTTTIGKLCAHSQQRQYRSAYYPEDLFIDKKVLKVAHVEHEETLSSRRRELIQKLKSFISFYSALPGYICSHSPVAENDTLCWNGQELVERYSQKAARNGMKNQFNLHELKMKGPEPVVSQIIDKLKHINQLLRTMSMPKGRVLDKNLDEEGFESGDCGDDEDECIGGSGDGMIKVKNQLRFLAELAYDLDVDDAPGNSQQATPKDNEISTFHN

B1: LM1653 (other)
light: DVVMTQSPLSLPVTPGEPASISCRSSQSLVHSNRNTYLHWYLQKPGQSPQLLIYKVSNRFSGVPDRFSGSGSGTDFTLKISRVEAEDVGVYYCSQNTHVPPTFGQGTKLEIKRTVAAPSVFIFPPSDEQLKSGTASVVCLLNNFYPREAKVQWKVDNALQSGNSQESVTEQDSKDSTYSLSSTLTLSKADYEKHKVYACEVTHQGLSSPVTKSFNRGEC
heavy 1: QVQLVQSGAEVKKPGASVKVSCKASGYTFTDYEMHWVRQAPGQGLEWMGALDPKTGDTAYSQKFKGRVTLTADKSTSTAYMELSSLTSEDTAVYYCTRFYSYTYWGQGTLVTVSSASTKGPSVFPLAPSSKSTSGGTAALGCLVKDYFPEPVTVSWNSGALTSGVHTFPAVLQSSGLYSLSSVVTVPSSSLGTQTYICNVNHKPSNTKVDKRVEPKSCDKTGGSEVQLVESGGGLVQPGGSLRLSCVASGDVHKINFLGWYRQAPGKEREKVAHISIGDQTDYADSAKGRFTISRDESKNMVYLQMNSLKPEDTAVYFCRAFSRIYPYDYWGQGTLVTVSSGGGGSTHTCPPCPAPPVAGPSVFLFPPKPKDTLMISRTPEVTCVVVDVKHEDPEVKFNWYVDGVEVHNAKTKPREEQYNSTYRVVSVLTVLHQDWLNGKEYKCKVSNKALPAPIEKTISKAKGQPREPQVCTLPPSREEMTKNQVSLSCAVKGFYPSDIAVEWESNGQPENNYKTTPPVLDSDGSFFLVSKLTVDKSRWQQGNVFSCSVMHEALHNHYTQKSLSLSPGK
heavy 2: QVQLVQSGAEVKKPGASVKVSCKASGYTFTDYEMHWVRQAPGQGLEWMGALDPKTGDTAYSQKFKGRVTLTADKSTSTAYMELSSLTSEDTAVYYCTRFYSYTYWGQGTLVTVSSASTKGPSVFPLAPSSKSTSGGTAALGCLVKDYFPEPVTVSWNSGALTSGVHTFPAVLQSSGLYSLSSVVTVPSSSLGTQTYICNVNHKPSNTKVDKRVEPKSCDKTGGSEVQLLESGGGLVQPGGSLRLSCAASGFTFDDYAIGWFRQAPGKEREGVSCIRVSDGSTYYADSVKGRFTISRDNSKNTLYLQMNSLRAEDTAVYYCAAGSLYTCVQSIVWPARPYYDMDYWGQGTLVTVSSGGGGSTHTCPPCPAPPVAGPSVFLFPPKPKDTLMISRTPEVTCVVVDVKHEDPEVKFNWYVDGVEVHNAKTKPREEQYNSTYRVVSVLTVLHQDWLNGKEYKCKVSNKALPAPIEKTISKAKGQPREPQVYTLPPCREEMTKNQVSLWCLVKGFYPSDIAVEWESNGQPENNYKTTPPVLDSDGSFFLYSKLTVDKSRWQQGNVFSCSVMHEALHNHYTQKSLSLSPGK
notes: also called GPC3 TITAN; LM1653 (GPC3)
For B1, the Kd in assay [1] amounted to 82.7 nM; in assay [2], 62.4 nM; in assay [3], 0.67 nM; in assay [4] it was 0.82 nM. The koff in assay [1] worked out at 0.028 s⁻¹; in assay [2], 0.0329 s⁻¹; in assay [3] it was 0.000226 s⁻¹; in assay [4], 0.000267 s⁻¹. Besides, the on-rate (kon) in assay [1] was found to be 340000 M⁻¹ s⁻¹; in assay [2], 527000 M⁻¹ s⁻¹; in assay [3] it was 341000 M⁻¹ s⁻¹; in assay [4] it was 326000 M⁻¹ s⁻¹. Further, the EC50 in assay [5] amounted to 8 nM; in assay [6], 2 nM.

B2: LRC150016 (other)
light: DIQMTQSPSSLSASVGDRVTITCRASQDISNYLNWYQQKPGGAVKFLIYYTSRLHSGVPSRFSGSGSGTDYTLTISSLQPEDFATYFCQQGEALPWTFGGGTKVEIKRTVAAPSVFIFPPSDEQLKSGTASVVCLLNNFYPREAKVQWKVDNALQSGNSQESVTEQDSKDSTYSLSSTLTLSKADYEKHKVYACEVTHQGLSSPVTKSFNRGEC
heavy 1: EVQLVQSGAEVKKPGASVKVSCKASGYKFSSYWIEWVKQAPGQGLEWIGEILPGSDTTNYNEKFKDRATFTSDTSINTAYMELSRLRSDDTAVYYCARDRGNYRAWFGYWGQGTLVTVSSASTKGPSVFPLAPSSKSTSGGTAALGCLVKDYFPEPVTVSWNSGALTSGVHTFPAVLQSSGLYSLSSVVTVPSSSLGTQTYICNVNHKPSNTKVDKRVEPKSCDKTGGSEVQLVESGGGLVQPGGSLRLSCVASGDVHKINFLGWYRQAPGKEREKVAHISIGDQTDYADSAKGRFTISRDESKNMVYLQMNSLKPEDTAVYFCRAFSRIYPYDYWGQGTLVTVSSGGGGSTHTCPPCPAPPVAGPSVFLFPPKPKDTLMISRTPEVTCVVVDVKHEDPEVKFNWYVDGVEVHNAKTKPREEQYNSTYRVVSVLTVLHQDWLNGKEYKCKVSNKALPAPIEKTISKAKGQPREPQVCTLPPSREEMTKNQVSLSCAVKGFYPSDIAVEWESNGQPENNYKTTPPVLDSDGSFFLVSKLTVDKSRWQQGNVFSCSVMHEALHNRFTQKSLSLSPGK
heavy 2: EVQLVQSGAEVKKPGASVKVSCKASGYKFSSYWIEWVKQAPGQGLEWIGEILPGSDTTNYNEKFKDRATFTSDTSINTAYMELSRLRSDDTAVYYCARDRGNYRAWFGYWGQGTLVTVSSASTKGPSVFPLAPSSKSTSGGTAALGCLVKDYFPEPVTVSWNSGALTSGVHTFPAVLQSSGLYSLSSVVTVPSSSLGTQTYICNVNHKPSNTKVDKRVEPKSCDKTGGSEVQLLESGGGLVQPGGSLRLSCAASGFTFDDYAIGWFRQAPGKEREGVSCIRVSDGSTYYADSVKGRFTISRDNSKNTLYLQMNSLRAEDTAVYYCAAGSLYTCVQSIVWPARPYYDMDYWGQGTLVTVSSGGGGSTHTCPPCPAPPVAGPSVFLFPPKPKDTLMISRTPEVTCVVVDVKHEDPEVKFNWYVDGVEVHNAKTKPREEQYNSTYRVVSVLTVLHQDWLNGKEYKCKVSNKALPAPIEKTISKAKGQPREPQVYTLPPCREEMTKNQVSLWCLVKGFYPSDIAVEWESNGQPENNYKTTPPVLDSDGSFFLYSKLTVDKSRWQQGNVFSCSVMHEALHNHYTQKSLSLSPGK
notes: also called LRC150016 (LRRC15); LRC150016 engager
Regarding B2, the results for the concentration for a half-maximal effect (EC50 (read off the curve)) in assay [7] and in assay [8] were roughly 2 nM and roughly 3 nM, respectively.

One may read the Kd as the constant that tells how readily two partners part at equilibrium. One may read the koff as the rate constant with which the complex falls apart. Broadly, the kon is a measure of how fast the partners come together. The term EC50 denotes the concentration at which the effect is half-maximal. Usually EC50 (read off the curve) stands for the concentration needed to bring the measured effect to its halfway point.
